Test results: US20250002570A1 (Innovent, published 2025)

T1: human VEGF C (human, UniProt P49767 103-227, limits assumed)
T1 construct: also called hVEGFC; hVEGF C
T1 sequence (looked up): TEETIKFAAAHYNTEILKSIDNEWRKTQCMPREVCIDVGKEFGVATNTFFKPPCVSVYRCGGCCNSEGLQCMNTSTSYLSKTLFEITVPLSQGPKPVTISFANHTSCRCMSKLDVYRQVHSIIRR


Columns and labels:
human VEGF C [1] = molecular target: T1, human VEGF C; assay: ELISA blocking: VEGFC-biotin captured on streptavidin plate; blocked receptor VEGFR2-Fc (0.2 ug/mL), detected with anti-human Fc-HRP, OD450
Method: The blocking effects of the antibodies of the present invention on the binding of hVEGFC to a receptor KDR were determined.
(§1) SA (streptavidin) was diluted to 1 μg/mL, and 100 μL/well of SA was plated in a microplate at 4° C. overnight. The plate was washed 3 times with PBST and blocked with 3% BSA for 1.5 h. The plate was washed 3 times with PBST, 50 ng/ml of VEGFC-biotin (biotin-labeled human VEGF C) was added, and the plate was incubated for 1.5 h. 50 μL of antibody was incubated with VEGFR2-Fc (with a final concentration of 0.2 μg/mL, Beijing Sino Biological) or VEGFR3-Fc (with a final concentration of 0.2 μg/mL, Beijing Sino Biological) for 20 min in advance, and the mixture was added to the plate. The plate was washed 3 times with PBST, an anti-human FcHRP antibody (diluted in a ratio of 1:10000, BETHYL) was added, and then the plate was incubated for 30 min. The plate was washed 6 times with PBST, the color development was performed with TMB (SOLARBIO) for 5 min, and OD450 nm was read after stopping.

human VEGF C [2] = molecular target: T1, human VEGF C; assay: BLI (ForteBio), monovalent binding, 30 C
Method: (§2) The equilibrium dissociation constant (KD) for binding of the antibodies of the present invention to human VEGF C was determined by bio-layer interferometry (ForteBio). A ForteBio affinity assay of prior art was performed (Estep. P., et al., “High throughput solution Based measurement of antibody-antigen affinity and epitope binning”, MAbs, 2013.5(2): 270-8).
(§3) 100 μL of SD buffer, antibodies, and antigens (human VEGF C, Beijing Sino Biological) were added to a 96-well black polystyrene half-area microplate (Greiner, 675076). The sensors were arranged according to the positions of the samples. The instrument settings were as follows: the operation procedures were Baseline, Loading −1 nm, Baseline, Association, and Dissociation; the run time of each procedure was dependent on the rates of association and dissociation; the rotation speed was 400 rpm, and the temperature was 30° C. The KD values were analyzed by ForteBio analysis software.

human VEGF C [3] = molecular target: T1, human VEGF C; assay: ELISA blocking: VEGFC-biotin captured on streptavidin plate; blocked receptor VEGFR3-Fc (0.2 ug/mL), detected with anti-human Fc-HRP, OD450
Method: as §1

human VEGF C [4] = molecular target: T1, human VEGF C; assay: as above; remark: listed apart in the source
Method: as §1

human VEGF C [5] = molecular target: T1, human VEGF C; assay: as above; remark: listed apart in the source
Method: as §1

human VEGF C [6] = molecular target: T1, human VEGF C; assay: BLI (ForteBio), bivalent binding, 30 C; * beyond the ForteBio detection limit
Method: as §2, §3

human VEGF C [7] = molecular target: T1, human VEGF C; assay: BLI (ForteBio), bivalent binding, 30 C
Method: as §2, §3

human VEGF C [8] = molecular target: T1, human VEGF C; assay: BLI (ForteBio), bivalent binding, 30 C; * beyond the ForteBio detection limit; bivalent binding, ForteBio; kdis at the detection limit
Method: as §2, §3

Row | Molecule | IC50 (human VEGF C [1]) | Kd (human VEGF C [2]) | koff (human VEGF C [2]) | kon (human VEGF C [2]) | IC50 (human VEGF C [3]) | IC50 (human VEGF C [4]) | IC50 (human VEGF C [5]) | koff (human VEGF C [6]) | Kd (human VEGF C [7]) | kon (human VEGF C [7]) | koff (human VEGF C [8])
1 | OPT-302-His | 0.0118 µg/mL |  |  |  |  |  |  |  |  |  | 
2 | am63G12-5G8-18B9 affinity-matured humanized anti-VEGF C VHH antibody (VHH, also called Am63G2-5G8-18B9; am63G12.1-5G8-18B9) VHH: EVQLVESGGGLVQPGGSLRLSCAASGSSFSPYAMGWYRQAPGKQRELVSATSSGGFTLYADSVKGRFTISRDNSKNTVYLQMNSLRAEDTAVYYCYTYYREYDPEMYWGQGTQVTVSS |  | 5.7 nM | 0.00036 s⁻¹ | 63100 M⁻¹ s⁻¹ | 0.0215 µg/mL |  |  |  |  |  | 
3 | LA63G12 anti-VEGF C VHH antibody (VHH, The prokaryotic product was purified on Ni Sepharose) VHH: QLQLVESGGGLVQPGGSLRLSCAASGSSFSPYAMGWYRQAPGKQRELVAATTSGGSTLYADSVKGRFTISRDNAKNTVYLQMNSLKPEDTAVYYCYMHWRGSDPENYWGQGTQVTVSS | 0.159 µg/mL | 16.4 nM | 0.000761 s⁻¹ | 46500 M⁻¹ s⁻¹ | 0.125 µg/mL | 0.342 µg/mL | 0.371 µg/mL | ≤ 0.0002 s⁻¹ | 0.656 nM | 305000 M⁻¹ s⁻¹ | 
4 | am63G12-14B11 affinity-matured humanized anti-VEGF C VHH antibody (VHH, also called am63G12.1-14B11) VHH: EVQLVESGGGLVQPGGSLRLSCAASGSSFSPYAMGWYRQAPGKQRELVSATSEGGFTLYADSVKGRFTISRDNSKNTVYLQMNSLRAEDTAVYYCYMHWRGSDPENYWGQGTQVTVSS |  | 6.21 nM | 0.000343 s⁻¹ | 55300 M⁻¹ s⁻¹ |  | 0.0191 µg/mL |  |  |  |  | 
5 | LA63G12.1 humanized anti-VEGF C VHH-Fc antibody (Fc fusion, not shown: Fc part (and any hinge or linker) of the dimerized VHH-Fc antibody) EVQLVESGGGLVQPGGSLRLSCAASGSSFSPYAMGWYRQAPGKQRELVSATTSGGSTLYADSVKGRFTISRDNSKNTVYLQMNSLRAEDTAVYYCYMHWRGSDPENYWGQGTQVTVSS |  |  |  |  | 0.182 µg/mL | 0.492 µg/mL |  | ≤ 0.0002 s⁻¹ | ≤ 0.622 nM | 322000 M⁻¹ s⁻¹ | 
6 | LA49G9.2 humanized anti-VEGF C VHH-Fc antibody (Fc fusion, not shown: Fc part (and any hinge or linker) of the dimerized VHH-Fc antibody) EVQLVESGGGLVQPGGSLRLSCAASGSMFSMYAMGWYRQAPGKQRELVAATTSGGSTLYADSVKGRFTISRDNSKNTLYLQMNSLRAEDTAVYYCYTYWRGSDPENYWGQGTQVTVSS |  |  |  |  |  |  |  | ≤ 0.0002 s⁻¹ | ≤ 0.645 nM | 310000 M⁻¹ s⁻¹ | 
7 | LA49G9 anti-VEGF C VHH antibody (VHH, The prokaryotic product was purified on Ni Sepharose) VHH: QLQLVESGGGLVQPGGSLRLSCAASGSMFSMYAMGWYRQAPGKQRELVAATTSGGSTLYADSVKGRFTISRDNAENTVYLQMNSLKPEDTAVYYCYTYWRGSDPENYWGRGTQVTVSS | 0.236 µg/mL | 10 nM | 0.000544 s⁻¹ | 54300 M⁻¹ s⁻¹ | 0.0815 µg/mL | 0.151 µg/mL | 0.352 µg/mL |  | 0.613 nM | 326000 M⁻¹ s⁻¹ | ≤ 0.0002 s⁻¹
